T1: Abp1, P15891
T1 sequence (P15891 535-592, looked up): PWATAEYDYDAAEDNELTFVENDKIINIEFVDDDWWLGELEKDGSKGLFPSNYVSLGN

T2: Bbc1, P47068
T2 sequence (P47068 1-78, looked up): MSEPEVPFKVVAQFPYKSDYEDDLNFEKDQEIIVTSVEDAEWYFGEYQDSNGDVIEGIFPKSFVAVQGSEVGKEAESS

T3: Boi1, P38041
T3 sequence (P38041 1-86, looked up): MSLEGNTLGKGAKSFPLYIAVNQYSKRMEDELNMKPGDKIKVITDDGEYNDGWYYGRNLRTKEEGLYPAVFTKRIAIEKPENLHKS

T4: Boi2, P39969
T4 sequence (P39969 32-116, looked up): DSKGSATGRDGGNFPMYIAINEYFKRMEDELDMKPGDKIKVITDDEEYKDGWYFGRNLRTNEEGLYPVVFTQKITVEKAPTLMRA

T5: Bud14, P27637
T5 sequence (P27637 247-328, looked up): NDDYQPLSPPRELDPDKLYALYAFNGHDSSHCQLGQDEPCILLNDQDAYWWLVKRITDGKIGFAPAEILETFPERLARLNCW

T6: Bzz1-1, P38822
T6 sequence (P38822 478-572, looked up): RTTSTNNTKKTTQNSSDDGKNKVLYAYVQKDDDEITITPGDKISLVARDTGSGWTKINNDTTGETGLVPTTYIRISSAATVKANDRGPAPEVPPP

T7: Bzz1-2, P38822
T7 sequence (P38822 568-633, looked up): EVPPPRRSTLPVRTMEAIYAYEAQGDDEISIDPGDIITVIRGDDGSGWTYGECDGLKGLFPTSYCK

T8: Cdc25, P04821
T8 sequence (P04821 50-136, looked up): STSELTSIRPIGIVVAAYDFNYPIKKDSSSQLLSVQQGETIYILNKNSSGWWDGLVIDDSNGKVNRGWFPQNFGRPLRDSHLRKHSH

T9: Cyk3, Q07533
T9 sequence (Q07533 1-83, looked up): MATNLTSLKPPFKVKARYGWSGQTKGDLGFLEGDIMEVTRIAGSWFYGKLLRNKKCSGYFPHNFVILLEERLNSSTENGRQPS

T10: Fus1, P11710
T10 sequence (P11710 432-512, looked up): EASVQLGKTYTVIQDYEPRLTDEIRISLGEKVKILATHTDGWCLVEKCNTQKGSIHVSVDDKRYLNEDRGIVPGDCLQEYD

T11: Hof1, Q05080
T11 sequence (Q05080 590-669, looked up): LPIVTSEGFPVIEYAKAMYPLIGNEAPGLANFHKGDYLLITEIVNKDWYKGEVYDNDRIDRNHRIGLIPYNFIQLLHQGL

T12: Hse1, P38753
T12 sequence (P38753 208-285, looked up): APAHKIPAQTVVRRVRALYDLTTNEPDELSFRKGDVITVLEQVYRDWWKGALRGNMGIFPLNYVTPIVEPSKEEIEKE

T13: Lsb1, P53281
T13 sequence (P53281 45-122, looked up): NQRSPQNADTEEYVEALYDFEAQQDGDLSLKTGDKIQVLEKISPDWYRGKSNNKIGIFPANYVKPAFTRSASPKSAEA

T14: Lsb3, P43603
T14 sequence (P43603 385-451, looked up): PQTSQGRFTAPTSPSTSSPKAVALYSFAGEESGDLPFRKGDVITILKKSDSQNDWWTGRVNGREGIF

T15: Lsb4, P32793
T15 sequence (P32793 402-468, looked up): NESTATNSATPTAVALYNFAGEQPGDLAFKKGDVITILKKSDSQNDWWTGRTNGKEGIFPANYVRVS

T16: Myo5, Q04439
T16 sequence (Q04439 1072-1160, looked up): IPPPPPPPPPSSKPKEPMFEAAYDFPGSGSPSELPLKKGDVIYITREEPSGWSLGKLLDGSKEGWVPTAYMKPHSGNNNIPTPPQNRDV

T17: Nbp2, Q12163
T17 sequence (Q12163 103-180, looked up): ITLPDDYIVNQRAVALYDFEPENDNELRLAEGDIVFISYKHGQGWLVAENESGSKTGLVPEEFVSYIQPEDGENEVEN

T18: Pex13, P80667
T18 sequence (P80667 295-386, looked up): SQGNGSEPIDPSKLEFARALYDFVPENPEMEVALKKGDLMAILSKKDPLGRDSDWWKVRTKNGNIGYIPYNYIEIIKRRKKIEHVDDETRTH

T19: Pin3, Q06449
T19 sequence (Q06449 53-122, looked up): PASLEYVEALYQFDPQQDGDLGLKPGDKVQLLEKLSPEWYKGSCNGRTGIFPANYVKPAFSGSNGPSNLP

T20: Sla1-2, P32790
T20 sequence (P32790 60-140, looked up): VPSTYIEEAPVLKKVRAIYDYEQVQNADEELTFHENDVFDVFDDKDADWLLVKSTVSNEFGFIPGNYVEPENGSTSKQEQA

T21: Sla1-3, P32790
T21 sequence (P32790 344-424, looked up): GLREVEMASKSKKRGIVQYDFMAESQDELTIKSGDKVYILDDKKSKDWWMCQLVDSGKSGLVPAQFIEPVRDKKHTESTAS


Experiments:
Test in all cases: SPOT array
Abp1, P15891 = target: T1, Abp1, P15891; settings: median of control spots 935
Bbc1, P47068 = target: T2, Bbc1, P47068; settings: median of control spots 796
Bem1-1, P29366 = settings: median of control spots 4282
Bem1-2, P29366 = settings: median of control spots 4347
Boi1, P38041 = target: T3, Boi1, P38041; settings: median of control spots 1162
Boi2, P39969 = target: T4, Boi2, P39969; settings: median of control spots 1161
Bud14, P27637 = target: T5, Bud14, P27637; settings: median of control spots 956
Bzz1-1, P38822 = target: T6, Bzz1-1, P38822; settings: median of control spots 4446
Bzz1-2, P38822 = target: T7, Bzz1-2, P38822; settings: median of control spots 4538
Cdc25, P04821 = target: T8, Cdc25, P04821; settings: median of control spots 969
Cyk3, Q07533 = target: T9, Cyk3, Q07533; settings: median of control spots 1451
Fus1, P11710 = target: T10, Fus1, P11710; settings: median of control spots 1200
GST = settings: median of control spots 978
Hof1, Q05080 = target: T11, Hof1, Q05080; settings: median of control spots 4086
Hse1, P38753 = target: T12, Hse1, P38753; settings: median of control spots 1727
Lsb1, P53281 = target: T13, Lsb1, P53281; settings: median of control spots 388
Lsb3, P43603 = target: T14, Lsb3, P43603; settings: median of control spots 406
Lsb4, P32793 = target: T15, Lsb4, P32793; settings: median of control spots 397
Myo3, P36006 = settings: median of control spots 468
Myo5, Q04439 = target: T16, Myo5, Q04439; settings: median of control spots 471
Nbp2, Q12163 = target: T17, Nbp2, Q12163; settings: median of control spots 357
Pex13, P80667 = target: T18, Pex13, P80667; settings: median of control spots 1341
Pin3, Q06449 = target: T19, Pin3, Q06449; settings: median of control spots 2171
Rvs167, P39743 = settings: median of control spots 2707
Sho1, P40073 = settings: median of control spots 1148
Sla1-2, P32790 = target: T20, Sla1-2, P32790; settings: median of control spots 712
Sla1-3, P32790 = target: T21, Sla1-3, P32790; settings: median of control spots 5475

Chain of Sho1, P40073 (P40073 287-367): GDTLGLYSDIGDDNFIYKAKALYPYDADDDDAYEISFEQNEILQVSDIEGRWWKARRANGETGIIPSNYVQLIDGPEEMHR
Chain of Rvs167, P39743 (P39743 419-482): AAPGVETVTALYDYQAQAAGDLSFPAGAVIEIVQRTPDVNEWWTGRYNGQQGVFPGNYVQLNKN
Chain of Bem1-2, P29366 (P29366 139-227): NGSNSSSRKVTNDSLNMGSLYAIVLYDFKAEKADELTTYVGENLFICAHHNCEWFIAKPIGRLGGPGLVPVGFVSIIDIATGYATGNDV
Chain of Bem1-1, P29366 (P29366 55-141): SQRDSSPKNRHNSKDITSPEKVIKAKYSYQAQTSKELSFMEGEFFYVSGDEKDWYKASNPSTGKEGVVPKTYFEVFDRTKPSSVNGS

Binder	SPOT intensity (Abp1, P15891)	SPOT intensity (Bbc1, P47068)	SPOT intensity (Bem1-1, P29366)	SPOT intensity (Bem1-2, P29366)	SPOT intensity (Boi1, P38041)	SPOT intensity (Boi2, P39969)	SPOT intensity (Bud14, P27637)	SPOT intensity (Bzz1-1, P38822)	SPOT intensity (Bzz1-2, P38822)	SPOT intensity (Cdc25, P04821)	SPOT intensity (Cyk3, Q07533)	SPOT intensity (Fus1, P11710)	SPOT intensity (GST)	SPOT intensity (Hof1, Q05080)	SPOT intensity (Hse1, P38753)	SPOT intensity (Lsb1, P53281)	SPOT intensity (Lsb3, P43603)	SPOT intensity (Lsb4, P32793)	SPOT intensity (Myo3, P36006)	SPOT intensity (Myo5, Q04439)	other results
KRKRRLPVSEDTNTK	78	77	1	0	6	2	22	3	1	16	8	150	6	0	4	1	8	4	9	0	SPOT intensity (Nbp2, Q12163): 8; SPOT intensity (Pex13, P80667): 0; SPOT intensity (Pin3, Q06449): 4; SPOT intensity (Rvs167, P39743): 1; SPOT intensity (Sho1, P40073): 54; SPOT intensity (Sla1-2, P32790): 0; SPOT intensity (Sla1-3, P32790): 21
QRKSLRRPTLSKPAV	78	37	0	1	2	0	2	4	16	7	4	2	6	4	10	32	3	3	10	3	SPOT intensity (Nbp2, Q12163): 5; SPOT intensity (Pex13, P80667): 3; SPOT intensity (Pin3, Q06449): 9; SPOT intensity (Rvs167, P39743): 0; SPOT intensity (Sho1, P40073): 116; SPOT intensity (Sla1-2, P32790): 3; SPOT intensity (Sla1-3, P32790): 22
NRLRKRLNLPSEISI	36	74	0	3	12	3	7	6	13	42	8	321	1	45	99	459	3	0	4	2	SPOT intensity (Nbp2, Q12163): 32; SPOT intensity (Pex13, P80667): 2; SPOT intensity (Pin3, Q06449): 17; SPOT intensity (Rvs167, P39743): 0; SPOT intensity (Sho1, P40073): 58; SPOT intensity (Sla1-2, P32790): 1; SPOT intensity (Sla1-3, P32790): 141
RKLRTVPGVPLIHLT	5	34	0	0	0	0	3	1	0	0	0	2	1	2	0	0	2	5	8	0	SPOT intensity (Nbp2, Q12163): 0; SPOT intensity (Pex13, P80667): 4; SPOT intensity (Pin3, Q06449): 3; SPOT intensity (Rvs167, P39743): 43; SPOT intensity (Sho1, P40073): 6; SPOT intensity (Sla1-2, P32790): 1; SPOT intensity (Sla1-3, P32790): 5

Reference: PMC2756588
